For 167 variants, screen value results are on record in publication PMC12102759.

The labels stand for the following.
B1: NCOA2 peptide 1073-1088 (Nuclear receptor coactivator 2), 16-mer library wild type / NSP3 UBl1 (ORF1ab Nsp3a Ub1, residues 819-925) (parent)
chain 1: PSDEGALLDQLYLALR
chain 2: APTKVTFGDDTVIEVQGYKSVNITFELDERIDKVLNEKCSAYTVELGTEVNEFACVVADAVIKTLQPVSELLTPLGIDLDEWSMATYYLFDESGEFKLASHMYCSFY
B2: PRDM14 peptide 196-211 (PR domain zinc finger protein 14), 16-mer library wild type / NSP3 SUD-M (ORF1ab Nsp3c SUD-M, residues 1356-1493) (parent)
chain 1: QFTEEDLHFVLYGVTP
chain 2: LPSIISNEKQEILGTVSWNLREMLAHAEETRKLMPVCVETKAIVSTIQRKYKGIKIQEGVVDYGARFYFYTSKTTVASLINTLNDLNETLVTMPLGYVTHGLNLEEAARYMRSLKVPATVSVSSPDAVTAYNGYLTSS
B3: TET3 peptide 458-473 (Methylcytosine dioxygenase TET3), 16-mer library wild type / NSP3 SUD-M (ORF1ab Nsp3c SUD-M, residues 1356-1493) (parent)
chain 1: DPMAELEQLLGSASDY
chain 2: B2 chain 2
B4: KIAA1671 peptide 600-615 (Uncharacterized protein KIAA1671), 16-mer library wild type / MDM2 SWIB (MDM2 SWIB/MDM2 domain, residues 17-125) (parent)
chain 1: TPEDDRSFQTVWATVF
chain 2: SQIPASEQETLVRPKPLLLKLLKSVGAQKDTYTMKEVLFYLGQYIMTKRLYDEKQQHIVYCSNDLLGDLFGVPSFSVKEHRKIYTMIYRNLVVVNQQESSDSGTSVSEN

In the first assay the parent is B1.
Assay: not given
As to conditions: with NSP3 UBl1 (ORF1ab Nsp3a Ub1, residues 819-925); bait immobilised on MaxiSorp plates (10 µg), library pre-cleared on GST, 2 h binding at 4 °C, five washes; one round per day, days 1-4; value from days 2 and 3; keep out of graded; scale: average fractional NGS count over selection days 2 and 3.
In the case of chain 1 L11I, the screen value came to 0.000119. Still for that read-out and setting: in the case of chain 1 L11P it was 0.

As for chain 1 L11Y, the screen value came to 0.

For the variant chain 1 L11A, the screen value was found to be 0. Turning to chain 1 L11D, the screen value came out at 0. For chain 1 L11V, the screen value worked out at 9.51e-06. As for chain 1 L11R, the screen value is 0. Turning to chain 1 L11K, the screen value came to 0.

Consider chain 1 L8Q, for which the screen value amounted to 0. Consider chain 1 L8K, for which the screen value was found to be 0. Take chain 1 L8S: the screen value turned out to be 0. As to chain 1 L8A, the screen value was determined as 0. Same read-out and setting: in the case of chain 1 L8E it was 0; in that of chain 1 L8N, 0. Consider chain 1 L8H, for which the screen value came to 0. As to chain 1 Y12F, the screen value was 0.000754. Turning to chain 1 Y12A, the screen value was found to be 0. For the variant chain 1 Y12S, the screen value came out at 0. For the variant chain 1 Y12V, the screen value turned out to be 0. In the case of chain 1 L7T, the screen value stood at 0. The same measure, in the same setting: in the case of chain 1 L7S it was 0. For chain 1 L7Q, the screen value turned out to be 0. Consider chain 1 E4P, for which the screen value came out at 0. With chain 1 E4F, the screen value came out at 0. Turning to chain 1 R16I, the screen value is 1.03e-05. In the case of chain 1 R16F, the screen value stood at 0.000746. As to chain 1 R16S, the screen value was found to be 4.51e-05.

For chain 1 R16M, the screen value stood at 7.36e-05. As to chain 1 R16Y, the screen value worked out at 0.0506. On to chain 1 R16Q, for which the screen value is 0.00132. On the same count and under the same terms, the result for chain 1 R16H reads 0.000164; that for chain 1 R16T, 0.000892; that for chain 1 S2L, 1.56e-05.

As to chain 1 S2G, the screen value was determined as 1.09e-05. The same measure, in the same setting: in the case of chain 1 S2H it was 1.09e-05. Consider chain 1 S2M, for which the screen value was determined as 8.73e-06. On the same count and under the same terms, the result for chain 1 S2F reads 4.76e-06; that for chain 1 S2I, 0. As to chain 1 S2A, the screen value amounted to 1.93e-05. Consider chain 1 S2E, for which the screen value came out at 0.

Consider chain 1 S2V, for which the screen value came out at 8.33e-06. As for chain 1 S2Q, the screen value came to 0.000342. chain 1 Q10A: the screen value came out at 0. With chain 1 Q10W, the screen value came out at 0. Turning to chain 1 Q10M, the screen value was 3.19e-06. Take chain 1 Q10L: the screen value was found to be 0. For chain 1 D3N, the screen value is 1.14e-05. Same read-out and setting: the result for chain 1 D3E reads 7.04e-06; that for chain 1 A6L, 2.33e-05; that for chain 1 A6R, 1.8e-05. On the same count and under the same terms, the result for chain 1 A6M reads 1.23e-05; that for chain 1 A6F, 1.11e-05; that for chain 1 A6K, 0. Regarding chain 1 L13S, the screen value stood at 0. Still for that read-out and setting: in the case of chain 1 L13E it was 0; in that of chain 1 L15I, 7.04e-06; in that of chain 1 L15N, 0. With chain 1 A14D, the screen value was determined as 0. With chain 1 A14R, the screen value was determined as 6.24e-06.

Turning to chain 1 A14Y, the screen value came to 0. On to chain 1 A14I, for which the screen value turned out to be 0.

Turning to chain 1 A14Q, the screen value turned out to be 0. For the variant chain 1 D9T, the screen value was determined as 7.34e-06. Same read-out and setting: in the case of chain 1 D9P it was 0.000642; in that of chain 1 D9E, 2.36e-05. In the case of chain 1 D9S, the screen value is 1.09e-05. Take chain 1 G5N: the screen value came to 0.

For chain 1 G5I, the screen value turned out to be 4.53e-05. The same measure, in the same setting: the result for chain 1 G5T reads 0. On to chain 1 G5S, for which the screen value worked out at 1.04e-05. For the variant chain 1 G5A, the screen value came out at 5.46e-06.

The variants in another assay derive from B2.
Assay: not given
As to conditions: with NSP3 SUD-M (ORF1ab Nsp3c SUD-M, residues 1356-1493); bait immobilised on MaxiSorp plates (10 µg), library pre-cleared on GST, 2 h binding at 4 °C, five washes; one round per day, days 1-4; value from days 2 and 3; keep out of graded; scale: average fractional NGS count over selection days 2 and 3.
chain 1 H8P: the screen value was 2.01e-05.

Take chain 1 H8S: the screen value is 2.39e-05. Take chain 1 L11T: the screen value worked out at 0. On to chain 1 L11G, for which the screen value was determined as 0. With chain 1 L11N, the screen value worked out at 0. On to chain 1 L11A, for which the screen value is 0.

Take chain 1 L11M: the screen value was determined as 0.

Regarding chain 1 L11E, the screen value amounted to 0. As to chain 1 L11D, the screen value was 0. On to chain 1 P16W, for which the screen value came to 2.83e-05. As for chain 1 E5S, the screen value stood at 0.

With chain 1 E5R, the screen value amounted to 0. chain 1 V14N: the screen value was determined as 3.28e-05. For chain 1 V14Q, the screen value stood at 0.

As to chain 1 V14D, the screen value came out at 3.47e-05.

As for chain 1 V14E, the screen value is 3.19e-05.

Consider chain 1 V14Y, for which the screen value was found to be 1.26e-05. As to chain 1 T3I, the screen value came out at 0. For chain 1 T3Q, the screen value came to 0. On to chain 1 V10E, for which the screen value amounted to 0. For chain 1 V10K, the screen value was 0. In the case of chain 1 V10H, the screen value was 0. Still for that read-out and setting: the result for chain 1 V10D reads 0.

chain 1 V10N: the screen value stood at 0. Turning to chain 1 E4N, the screen value came out at 0. On the same count and under the same terms, in the case of chain 1 E4T it was 1.11e-05; in that of chain 1 E4F, 1.23e-05; in that of chain 1 E4D, 2.34e-05.

For chain 1 L7G, the screen value is 0. For the variant chain 1 L7I, the screen value came to 1.23e-05. As to chain 1 L7K, the screen value worked out at 0. The same measure, in the same setting: in the case of chain 1 Y12P it was 0. With chain 1 Y12F, the screen value was found to be 1.23e-05. chain 1 F2Y: the screen value turned out to be 0.

Take chain 1 F9D: the screen value worked out at 0. As for chain 1 T15R, the screen value stood at 0. For the variant chain 1 T15F, the screen value was found to be 0. In the case of chain 1 T15M, the screen value is 0.

Variants of B3 are the subject of a further assay.
Assay: not given
As to conditions: with NSP3 SUD-M (ORF1ab Nsp3c SUD-M, residues 1356-1493); bait immobilised on MaxiSorp plates (10 µg), library pre-cleared on GST, 2 h binding at 4 °C, five washes; one round per day, days 1-4; value from days 2 and 3; keep out of graded; scale: average fractional NGS count over selection days 2 and 3.
With chain 1 Q8P, the screen value came out at 0. For chain 1 Q8R, the screen value stood at 0. Consider chain 1 Q8S, for which the screen value was 0. The same measure, in the same setting: the result for chain 1 Q8H reads 0; that for chain 1 Q8T, 0; that for chain 1 Q8M, 0. With chain 1 Q8K, the screen value turned out to be 0.

chain 1 P2W: the screen value is 0. Turning to chain 1 P2R, the screen value worked out at 0.

Regarding chain 1 P2A, the screen value is 0. Still for that read-out and setting: in the case of chain 1 P2D it was 0; in that of chain 1 P2H, 0.

chain 1 E7K: the screen value turned out to be 0. Consider chain 1 E7I, for which the screen value worked out at 0. Same read-out and setting: the result for chain 1 E7T reads 0; that for chain 1 E7N, 1.67e-05.

For chain 1 E7Y, the screen value was determined as 0. For the variant chain 1 E7G, the screen value was determined as 0.

Consider chain 1 A13V, for which the screen value amounted to 0. Turning to chain 1 G11H, the screen value was determined as 0. For the variant chain 1 G11A, the screen value was found to be 0.

Consider chain 1 G11W, for which the screen value was 0. Take chain 1 G11S: the screen value amounted to 0. As for chain 1 G11I, the screen value came out at 0. The same measure, in the same setting: the result for chain 1 D15K reads 0; that for chain 1 D15N, 0.

In the case of chain 1 D15G, the screen value is 0. On the same count and under the same terms, in the case of chain 1 L9Y it was 0. As to chain 1 L9T, the screen value amounted to 0. Take chain 1 L9A: the screen value amounted to 0. For chain 1 L9N, the screen value came to 0. As to chain 1 Y16H, the screen value is 0. Same read-out and setting: in the case of chain 1 Y16A it was 0; in that of chain 1 S12I, 0. Consider chain 1 S12K, for which the screen value came to 0. As for chain 1 S12E, the screen value is 0. Turning to chain 1 S12Q, the screen value was 0.

With chain 1 S12G, the screen value was 0. On to chain 1 S12R, for which the screen value worked out at 0. As to chain 1 L6K, the screen value worked out at 0. As to chain 1 L6S, the screen value came to 0.

On to chain 1 L6R, for which the screen value came out at 0. Still for that read-out and setting: the result for chain 1 L6M reads 0.

For chain 1 L6W, the screen value was determined as 0.

As to chain 1 L10R, the screen value was 0.

As to chain 1 L10T, the screen value was determined as 0. Consider chain 1 L10P, for which the screen value is 0. As for chain 1 L10Q, the screen value is 0. As to chain 1 S14I, the screen value turned out to be 0. For the variant chain 1 S14F, the screen value was 0. With chain 1 S14W, the screen value came to 0. In the case of chain 1 M3Q, the screen value worked out at 0. On the same count and under the same terms, the result for chain 1 M3N reads 0. On to chain 1 M3S, for which the screen value was determined as 0. Same read-out and setting: the result for chain 1 M3T reads 0; that for chain 1 E5K, 0; that for chain 1 E5Q, 0.

In a further assay the parent is B4. The assay can be described thus: proteomic peptide phage display deep mutational scan (ProP-PD DMS): M13 P8 16-mer library selected against immobilised GST-tagged bait for four days (rounds), NGS of the eluted pools per day and pseudo-replica. As to conditions: with MDM2 SWIB (MDM2 SWIB/MDM2 domain, residues 17-125); bait immobilised on MaxiSorp plates (10 µg), library pre-cleared on GST, 2 h binding at 4 °C, five washes; one round per day, days 1-4; value from days 2 and 3; keep out of graded; scale: average fractional NGS count over selection days 2 and 3.
On to chain 1 Q9W, for which the screen value was found to be 0.000575.
